Non-standard residues stand in square brackets, D forms with d. *: point of attachment. Biotin = O=C1N[C@H]2[C@H](CS[C@H]2CCCCC(=O)*)N1; pT = C[C@@H](OP(=O)(O)O)[C@H](N)C(=O)O; pS = N[C@@H](COP(=O)(O)O)C(=O)O; dPEG4 = PEG4 moiety
Assays:
Peptide-3 = Peptide-3 (human, phosphoserine 214, phosphothreonine 217 (tau 2N4R numbering); SCBiot and dPEG4 at the N-terminus; amide at the C-terminus); experiment: SPR ProteOn, peptide captured, Fab as analyte
Procedure: (§1) The binding affinity of PT3 Fab towards each of the fourteen tau phosphopeptides shown in Table 6 was assessed by surface plasmon resonance (SPR) using a Bio-Rad ProteOn XPR36. Peptides were synthesized by standard chemical methods (New England Peptide) with short-chain biotin and a PEG4 moiety at the N-terminus. Biotinylated peptide was captured on a neutravidin-coated NLC biosensor chip and PT3 Fab was flowed over the surface to measure kinetic parameters.
(§2) All experiments were performed at 25° C. using phosphate buffered saline, pH 7.4, 0.005% Tween 20 (PBST) as both running buffer and sample dilution buffer. Prior to running samples, the NLC chip was conditioned by running PBST over the chip surface for 1 h. Approximately 5-10 RU of peptide was captured on the chip surface by diluting peptide to 10 ng/mL in PBST and injecting over the flow channels at 30 μL/min for 100 s. Serial dilutions of PT3 Fab (1.1-90 nM) were analyzed and, with the exception of Peptide-8, each concentration was measured in duplicate. After capture of peptides, the antibody titration was injected at 60 μL/min for 3 minutes (association phase), followed by 300 s of buffer only (dissociation phase).
(§3) The data were double referenced by subtraction of the interspot response and the curves generated by the buffer-only injection. The chip surface was regenerated using a single injection of 0.85% phosphoric acid at 30 μL/min for 100 s contact time, followed by four injections of running buffer before the next antibody titration injection. The data processing and kinetic analysis were done using the instrument software. The data were analyzed using a simple Langmuir 1:1 binding model.

Peptide-7 [1] = target: T1, Peptide-7 (human, phosphothreonine 212, phosphoserine 214 (tau 2N4R numbering); SCBiot and dPEG4 at the N-terminus; amide at the C-terminus); experiment: SPR ProteOn, peptide captured, Fab as analyte
Procedure: as §1, §2, §3

Peptide-11 = target: T2, Peptide-11 (human); experiment: SPR ProteOn, peptide captured, Fab as analyte
T2 peptide: {Biotin-dPEG4}-SPGTPG[pS]RSR[pT]P[pS]LPTPPT-NH2
Procedure: as §1, §2, §3

Peptide-4 = Peptide-4 (human, phosphoserine 210, phosphothreonine 217 (tau 2N4R numbering); SCBiot and dPEG4 at the N-terminus; amide at the C-terminus); experiment: SPR ProteOn, peptide captured, Fab as analyte; Peptide-4, phosphorylated at 210/217
Procedure: as §1, §2
(§4) The data were double referenced by subtraction of the interspot response and the curves generated by the buffer-only injection. […] The data were analyzed using a simple Langmuir 1:1 binding model.

Peptide-6 [2] = target: T3, Peptide-6 (human, phosphothreonine 217 (tau 2N4R numbering); SCBiot and dPEG4 at the N-terminus; amide at the C-terminus); experiment: SPR ProteOn, peptide captured, Fab as analyte; Peptide-6, phosphorylated at 217 only
Procedure: as §1, §2, §4

Peptide-6 [3] = target: T3, Peptide-6; experiment: SPR ProteOn, peptide captured, Fab as analyte; range of n=2; Peptide-6 (pT217 only); lower end of n=2 range
Procedure: as §1, §2, §4

Peptide-6 [4] = target: T3, Peptide-6; experiment: SPR ProteOn, peptide captured, Fab as analyte; range of n=2; Peptide-6 (pT217 only); upper end of n=2 range
Procedure: as §1, §2, §4

Peptide-7 [5] = target: T1, Peptide-7; experiment: SPR ProteOn, peptide captured, Fab as analyte; range of n=2; Peptide-7 (pT212/pS214); lower end of n=2 range
Procedure: as §1, §2, §4

Peptide-1 = target: T4, Peptide-1 (human, phosphothreonine 212, phosphoserine 214, phosphothreonine 217 (tau 2N4R numbering); short chain biotin (SCBiot) and dPEG4 at the N-terminus; amide at the C-terminus); experiment: SPR ProteOn, peptide captured, Fab as analyte; range of n=2; Peptide-1 (pT212/pS214/pT217); lower end of n=2 range
T4 construct: also called tau peptide phosphorylated at T212/S214/T217
Procedure: as §1, §2, §4

Peptide-2 [6] = target: T5, Peptide-2 (human, phosphothreonine 212, phosphothreonine 217 (tau 2N4R numbering); short chain biotin (SCBiot) and dPEG4 at the N-terminus; amide at the C-terminus); experiment: SPR ProteOn, peptide captured, Fab as analyte; Peptide-2 (pT212/pT217); separate run of Table 12 (HFA Fab comparison), n=2
T5 construct: also called pT212/pT217-tau peptide (Peptide-2)
Procedure: (§5) A subset of HFA-PT3 monoclonal antibody variants, selected based on biophysical characterization and ELISA binding to PHF, were analyzed by Surface Plasmon Resonance (SPR) with a ProteOn XPR36 for binding to the following phosphopeptides: pT212/pT217-tau peptide (Peptide-2, SEQ ID NO: 48) and pT212-tau peptide (Peptide-8, SEQ ID NO: 54). All experiments were performed at 25° C. using PBST, pH 7.4, (Bio-Rad Cat#176-2720) as both running buffer and sample dilution buffer.
(§6) Fab/peptide binding. Biotinylated peptide was captured on a neutravidin-coated NLC biosensor chip pre-conditioned with PBST, and Fab was flowed over the surface to measure kinetic parameters. Approximately 5-10 RU of peptide was captured on the chip surface by diluting peptide to 10 ng/mL in PBST and injecting over the flow channels at 30 μL/min for 100 s. Serial dilutions of PT3 Fab (1.1 nM to 90 nM) were injected at 60 μL/min for 3 minutes (association phase), followed by 300 s of buffer only (dissociation phase).
(§7) Data were double referenced by subtraction of the interspot response, and the curves generated by the buffer only injection. The chip surface was regenerated with 0.85% phosphoric acid, followed by PBST injection before the next antibody titration injection. Data processing and analysis were performed using instrument software. The data were fit using a simple Langmuir 1:1 binding model.

Peptide-2 [7] = target: T5, Peptide-2; experiment: SPR ProteOn, peptide captured, Fab as analyte; range of n=2; Peptide-2 (pT212/pT217); Table 12 run; upper end of n=2 range
Procedure: as §5, §6, §7

T1 sequence (peptide, as listed by the source): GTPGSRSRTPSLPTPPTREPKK

B1: PT3 Fab (B187) (Fab, V domains shown)
VH: EVKLVESGGDLVKPGGSLKLSCAASGFTFSSYAMSWVRQNPEKRLEWVASISKGGNTYYPNSVKGRFTISRDNARNILYLQMSSLRSEDTALYYCARGWGDYGWFAYWGQVTLVTVSA
VL: DIKMTQSPSSMYASLGERVTITCKASQDINRYLNWFQQKPGKSPKTLIYRANRLLDGVPSRFSGSGSGQDYSLTISSLDYEDMGIYYCLQYDEFPLTFGDGTKLELK
notes: Chimeric Fab: mouse variable regions, human IgG1/kappa constant region, 6xHis tag at the C-terminus of the heavy chain; also called mouse parental Fab of PT3
Peptide-3
  koff: 0.00547 s⁻¹
  kon: 1.04e+06 M⁻¹ s⁻¹
Peptide-7 [1]
  koff: 0.00555 s⁻¹
  kon: 422000 M⁻¹ s⁻¹
Peptide-11
  binding result: no binding (tested: 1.1-90 nM)
Peptide-4
  Kd: 6.6 nM
Peptide-6 [2]
  Kd: 11.4 nM
Peptide-6 [3]
  Kd: 10.9 to 11.9 nM
Peptide-6 [4]
  Kd: 10.9 to 11.9 nM
Peptide-7 [5]
  Kd: 11.3 to 15.7 nM
Peptide-1
  Kd: 0.14 to 0.38 nM
Peptide-2 [6]
  Kd: 0.0874 nM
Peptide-2 [7]
  Kd: 0.0738 to 0.101 nM

Reference: patent US20230047413A1 (Janssen / Centocor, published 2023)
